Patent publication US20240067729A1 (PALLEON PHARMACEUTICALS, published 2024)
Like-named read-outs stand apart in the source and are kept apart here.

B1: PAL759 (hybridoma 13F1.B7) (antibody, V domains shown)
VH: EVQLQESGAELVRPGASVKLSCKASGYSFTDYYINWVKQRPGQGLEWIARIYPGSGNTYYNEKFKGKATLTAEKSSITAYMQLSSLTSEDSAVYFCARSYYYGSSYLFDYWGQGTTLTVSS
VL: DILLTQSPAILSVSPGERVSFSCRASQSIGTSIHWYQQRTNGSPRLLIKYASESISGIPSRFSGSGSGTDFTLSINSVESEDIGDYYCQQSNNWPFTFGSGTKLEIK
notes: Mouse IgG purified from hybridoma supernatant
B2: PAL769 (hybridoma 2C1.C8) (antibody, V domains shown)
VH: EVQLQESGAELVKPGASVTLSCTASGFNIKDTYMHWVKQRPEQGLEWIGRIDPANDNTKYDPKFQDKATITADTSSDTAYLRLSSLTSEDTAVYYCAREGYGGSYGEGYWGQGTTLTVSS
VL: SIVMTQTPKFLLVSAGDRVTITCKASQSVSNDVIWYQQKPGQSPKLLIYYASIRFTGVPDRFAGSGYGTDFTFTINTVQAEDLAVYFCQQDYNSPWTFGGGTKLEIK
notes: as for B1
B3: PAL752 (hybridoma 4G6.H4) (antibody, V domains shown)
VH: EVQLQESGAELARPGASVKLSCKASGHAFTSDSINWVKQRIGQGLEWIGEIYPRSGNPYYNEKFKGKATLTADKSSSTAYMELRSLTSEDSAVYFCATDYYGRYFDVWGTGTTVTVSS
VL: DIQMTQSSFSFSVSLGDRVTIICKASEDIYNRLAWYQQKPGNTPRLLISGATSLETGVPSRFSGSGSGKDYTLSITSLQTEDVATYYCQQYWSTPWTFGGGTKLEIK
notes: as for B1
B4: PAL785 (hybridoma 16G1.A5) (antibody, V domains shown)
VH: EVQLQESGPELVKPGTSVKMSCKASGYTFTSYVMHWVKQRPGQGLEWIGYINPYNDGSKYNEKFKGKATLTSDTSSSTAYMELSSLTSEDSAVYYCAKQTLDFWGQGTSVTVST
VL: DIVLTQSPASLAVSLGQRATISCRASESVEFYGTTLMQWYQQKPGQPPKLLIYAASNVESGVPARFSGSGSGTDFSLNIHPVEEGDIGMYFCQQSRKVPYTFGGGTKLEIK
notes: as for B1
B5: PAL771 (hybridoma 2D10.E2.B9) (antibody, V domains shown)
VH: EVQLQESGAELVKPGASVKLSCTASGFNIKDTYMHWVKQRPEQGLEWIGRIDPANGNTKYDPKFPGKATITADTSSNTAYLQLSSLTSEDAAVYYCARPFNYRFYDVYYFDYWGQGTTLTVST
VL: QIVLTQSPAIMSASPGEKVTMTCSASSSVSYMYWYQQKPGSSPRLLIYDTSNLASGVPLRFSGSGSGTSYSLTLSRMEAEDAATYYCQQWSTYPLTFGAGTKLELK
notes: as for B1
B6: PAL771.2 (hybridoma 2D10.E2.H4) (antibody, V domains shown)
VH: EVQLQESGAELVKPGASVKLSCTASGFNIKDTYMHWVKQRPEQGLEWIGRIDPANGNTKYDPKFPGKATITADTSSNTAYLQLSSLTSEDAAVYYCARPFNYRFYDVYYFDYWGQGTTLTVST
VL: QIVLTQSPAIMSASPGEKVTMTCSASSSVSYMYWYQQKPGSSPRLLIYDTSNLASGVPLRFSGSGSGTSYSLTLSRMEAEDAATYYCQQWSTYPLTFGAGTKLELK
B7: PAL788(3E3) (hybridoma CKH-3E3) (antibody, V domains shown)
VH: QVQLQQPGAELVKPGASVKLSCKASGYTFTSNWMNWVKQRPGRGLEWIGRIHPSDSETHYHQKFKSKATLTVDKSSSTAYIQLSSLTSEDSAVYYCAHSSGDYGRDYWGQGTTLTVSS
VL: NIVLTQSPASLAVSLGQRATISCRASESVDSYGNSFMHWYQQKPGQPPKLLIYLASNLQSGVPARFSGSGSRTDFTLTIDPVEADDAATYYCQQNNEDPWTFGGGTKLEIK
notes: as for B1
B8: PAL787(3D10) (hybridoma CKH-3D10) (antibody, V domains shown)
VH: QVTLKESGPGILQPSQTLSLTCSFSGFSLSTYGLGVGWIRQPSGKGLEWLANIWWNDDKFYDSVLKSRLTISKDTSNNQVFLKISSVDTSETATYYCAQTLHYYDGIAWFAYWGQGTLVTVSA
VL: DIVMTQSQNFMSTSVGDRVSVTCKASHYVGTFVAWYQQKPGQSPKALIFSTSYRHTGVPDRFTGSGSGTDFTLTISNVQSEDLADYFCQQYYNSPLTFGAGTKLELK
notes: as for B1
B9: h769-IF3 (humanized 769-hIgG1 variant) (antibody, V domains shown)
VH: EVQLVQSGAEVKKPGATVKISCKVSGFNIKDTYMHWVQQAPGKGLEWMGLIDPANDNTIYAEKFQGRVTITADTSTDTAYMELSSLRSEDTAVYYCAREGYGGSYGEGYWGQGTLVTVSS
VL: EIVMTQSPPTLSLSPGERVTLSCRASQSVSNDLSWYQQKPGQAPRLLIYYASIRFTGIPARFSGSGSGTDFTLTISSLQPEDFAVYYCQQDYNSPWTFGQGTKVEIK
B10: h769-N93 (humanized 769-hIgG1 variant keeping N93 in CDR-L3) (antibody, V domains shown)
VH: EVQLVQSGAEVKKPGATVKISCKVSGFNIKDTYMHWVQQAPGKGLEWMGLIDPANDNTIYAEKFQGRVTITADTSTDTAYMELSSLRSEDTAVYYCAREGYGGSYGEGYWGQGTLVTVSS
VL: EIVMTQSPPTLSLSPGERVTLSCRASQSVSNDLSWYQQKPGQAPRLLIYYASIRFTGIPARFSGSGSGTDFTLTISSLQPEDFAVYYCQQDYNSPWTFGQGTKVEIK
B11: h769-N93A (humanized 769-hIgG1 variant, N93A in CDR-L3) (antibody, V domains shown)
VH: EVQLVQSGAEVKKPGATVKISCKVSGFNIKDTYMHWVQQAPGKGLEWMGLIDPANDNTIYAEKFQGRVTITADTSTDTAYMELSSLRSEDTAVYYCAREGYGGSYGEGYWGQGTLVTVSS
VL: EIVMTQSPPTLSLSPGERVTLSCRASQSVSNDLSWYQQKPGQAPRLLIYYASIRFTGIPARFSGSGSGTDFTLTISSLQPEDFAVYYCQQDYASPWTFGQGTKVEIK
notes: Human IgG1
B12: h769-tm2 (humanized 769-hIgG1 variant) (antibody, V domains shown)
VH: EVQLVQSGAEVKKPGATVKISCKVSGFNIKDTYMHWVQQAPGKGLEWMGLIDPANDNTIYAEKFQGRVTITADTSTDTAYMELSSLRSEDTAVYYCAREGYGGSYGEGYWGQGTLVTVSS
VL: EIVMTQSPPTLSLSPGERVTLSCRASQSVSNDLSWYQQKPGQAPRLLIYYASIRFTGIPARFSGSGYGTDFTLTISSLQPEDFAVYYCQQDYNSPWTFGQGTKVEIK
B13: h769-tm3 (humanized 769-hIgG1 variant) (antibody, V domains shown)
VH: EVQLVQSGAEVKKPGATVKISCKVSGFNIKDTYMHWVQQAPGKGLEWMGLIDPANDNTIYAEKFQGRVTITADTSTDTAYMELSSLRSEDTAVYYCAREGYGGSYGEGYWGQGTLVTVSS
VL: EIVMTQSPPTLSLSPGERVTLSCRASQSVSNDLSWYQQKPGQAPRLLIYYASIRFTGIPARFSGSGSGTDFTLTISSLQPEDFAVYFCQQDYNSPWTFGQGTKVEIK
B14: PAL767 (hybridoma 1G7.A8) (antibody, V domains shown)
VH: EVQLQESGPSLVKPSQTLSLTCSVTGDSITSGYWNWIRKFPGNKLEYMGYISYTGSTYYNPSLKRRISITRDTSKNQYYLQLNSVTTEDTATYYCASQGGWLQAMDYWGQGTSVTVSS
VL: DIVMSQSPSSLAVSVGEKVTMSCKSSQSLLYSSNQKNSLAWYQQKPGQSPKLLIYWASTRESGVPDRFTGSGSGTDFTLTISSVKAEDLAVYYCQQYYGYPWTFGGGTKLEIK
notes: as for B1

Assays:
[1] = target: T1, human PD-L1, his tagged (hPD-L1-his) (human, UniProt Q9NZQ7 19-238, limits assumed); test: BLI (ForteBio Octet), mouse IgG on AMC sensor, hPD-L1-his analyte, 1:1 fit
T1 construct: also called huPD-L1-His; recombinant human PD-L1; not shown: his tag
T1 sequence (Q9NZQ7 19-238 limits assumed): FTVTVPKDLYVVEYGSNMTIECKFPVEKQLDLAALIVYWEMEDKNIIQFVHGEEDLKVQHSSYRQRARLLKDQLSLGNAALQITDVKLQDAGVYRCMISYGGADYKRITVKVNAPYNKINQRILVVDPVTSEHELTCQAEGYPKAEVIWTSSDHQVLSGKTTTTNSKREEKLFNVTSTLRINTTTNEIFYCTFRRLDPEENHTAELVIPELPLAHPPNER
Protocol: (§1) Screening of purified hybridoma antibodies. ForteBio octet binding of purified antibodies to recombinant hPD-L1-his and cPD-L1-his was measured. Mouse IgGs purified from hybridoma supernatant were captured on AMC (Anti-mouse IgG-Capture) Biosensor. hPD-L1-his or cPD-L1-his analytes were titrated from 100 nM in a 2× series dilution. The signal was subtracted with buffer reference and aligned to the baseline. KD, Kon and Koff values were generated using a 1:1 fitting model. […] The X-axes represent assay time in seconds, and the Y-axes represent binding signal on the biosensor. Each line represents the real time signal of antigen association and dissociation at the given antigen concentration in the assay (e.g., the top line represents the signal of the highest antigen concentration in the assay, the second top line represents the second highest concentration in the assay). The vertical dashed line represents the time point that the assay was moved from association step to the dissociation step. All the ForteBio/Octet assays were using standard/conventional settings and the graphs provided in the figures will be understood by one of skill in the art.

[2] = target: T2, human PD-L1 Fc fusion (hPD-L1-Fc) (human, UniProt Q9NZQ7 19-238, limits assumed); test: blocking ELISA: antibody titrated + biotin-hPD-1-Fc 1 ug/mL on coated hPD-L1-Fc
T2 construct: not shown: Fc part
T2 sequence (Q9NZQ7 19-238 limits assumed): as above
Excerpt: The plate was developed with TMB and Stop buffer, the absorbance at 450 nm was read using SpectraMax plate reader. The A450 absorbance was normalized to the control that without antibody for the percentage values. The curve and IC₅₀ were generated using GraphPad Prism software.

[3] = target: T3, cynomolgus PD-L1, his tagged (cPD-L1-his) (cynomolgus (Macaca fascicularis), UniProt G7PSE7 19-238); test: ELISA on cynomolgus PD-L1
T3 construct: also called cyPD-L1-His; Cyno PD-L1
T3 sequence (G7PSE7 entry or part of it limits assumed, form in doubt): as the sequence (Q9NZQ7 19-238 limits assumed) above, with A33T, A34S, S62N, R68Q, Q82R, F173L, T185A, T192I, H215L counted along it

[4] = target: T3, cynomolgus PD-L1, his tagged …; test: BLI (ForteBio Octet), mouse IgG on AMC sensor, cPD-L1-his analyte, 1:1 fit
Protocol: as §1

[5] = target: T3, cynomolgus PD-L1, his tagged …; test: BLI (ForteBio Octet), cPD-L1-his
Protocol: (§2) Characterization of chimeric anti-PD-L1 antibodies. ForteBio octet binding of purified chimeric antibodies and recombinant hPD-L1-his and cPD-L1-his was measured. Chimeric human antibodies were captured on AHC (Anti-human IgG-Capture) Biosensor, hPD-L1-his or cPD-L1-his analytes were titrated from 100 nM in a 2× series dilution. The buffer reference was subtracted from the signal and aligned to the baseline. KD, Kon and Koff values were generated using 1:1 fitting model as described above. […]

[6] = target: T1, human PD-L1, his tagged (hPD-L1-his); test: BLI (ForteBio Octet), hPD-L1-his
Protocol: as §2

[7] = target: T1, human PD-L1, his tagged (hPD-L1-his); test: BLI (ForteBio Octet), hPD-L1-his; remark: listed apart in the source
Protocol: Characterization of chimeric anti-PD-L1 antibodies. ForteBio octet binding of purified chimeric antibodies and recombinant hPD-L1-his and cPD-L1-his was measured. Chimeric human antibodies were captured on AHC (Anti-human IgG-Capture) Biosensor, hPD-L1-his or cPD-L1-his analytes were titrated from 100 nM in a 2× series dilution. The buffer reference was subtracted from the signal and aligned to the baseline. KD, Kon and Koff values were generated using 1:1 fitting model as described above.
Selected h769 antibodies were tested in the blocking ELISA as described in Example 3 herein. […] Selected h769 humanized PD-L1 antibodies were characterized following removal of the deamidation motif in CDR-L3. FIG. 25 depicts the ForteBio octet binding of purified humanized antibodies and recombinant hPD-L1-his was measured.

| Kd [1] | IC50 [2] | ELISA cyno, Fold over Bkg [3] | Kd [4] | other results | Binder |
| --- | --- | --- | --- | --- | --- |
| 1.14 nM | 4.64 nM | 13.1 fold over background |  |  | B1 |
| 0.758 nM | 0.51 nM | 39.5 fold over background | 1.3 nM |  | B2 |
| 0.789 nM | 2.53 nM | 18.4 fold over background | 4.03 nM |  | B3 |
| 1.02 nM | 0.68 nM | 4.98 fold over background | 0.642 nM |  | B4 |
| 0.592 nM |  |  | 1.15 nM |  | B5 |
|  |  |  | 2.27 nM |  | B6 |
| 0.188 nM | 0.89 nM | 24.8 fold over background | 0.392 nM |  | B7 |
| 0.277 nM | 4.07 nM | 38.2 fold over background | 0.283 nM |  | B8 |
|  |  |  |  | Kd [5]: 2.92 nM; koff [5]: 0.000602 s⁻¹; kon [5]: 208000 M⁻¹ s⁻¹; Kd [6]: 2.64 nM; koff [6]: 0.000871 s⁻¹; kon [6]: 330000 M⁻¹ s⁻¹ | B9 |
|  |  |  |  | koff [7]: 0.00058 s⁻¹; kon [7]: 292000 M⁻¹ s⁻¹ | B10 |
|  |  |  |  | Kd [7]: 1.46 nM; koff [7]: 0.000414 s⁻¹; kon [7]: 284000 M⁻¹ s⁻¹ | B11 |
|  |  |  |  | Kd [5]: 3.01 nM; koff [5]: 0.000593 s⁻¹; kon [5]: 204000 M⁻¹ s⁻¹; Kd [6]: 2.48 nM; koff [6]: 0.000818 s⁻¹; kon [6]: 331000 M⁻¹ s⁻¹ | B12 |
|  |  |  |  | Kd [5]: 3.11 nM; koff [5]: 0.00065 s⁻¹; kon [5]: 211000 M⁻¹ s⁻¹; Kd [6]: 2.95 nM; koff [6]: 0.000904 s⁻¹; kon [6]: 311000 M⁻¹ s⁻¹ | B13 |
| 0.803 nM | 0.81 nM | 36.9 fold over background | 0.0577 nM |  | B14 |
